This note sets out measurements from patent publication US20230346961A1, “GLP-1 AND GIP RECEPTOR CO-AGONISTS” (Novo Nordisk A/S, priority 2020, published 2023).

Starred links: 1 amine or outer side, 2 acyl side, 3 side chain; linkers in the order of their positions; H or OH if unused. Non-standard residues stand in square brackets, D forms with d. Groups on a side chain read outwards from the residue. No end group written: not given here. *: point of attachment. C18 diacid = O=C(O)CCCCCCCCCCCCCCCCC(=O)*; γGlu = O=C(O)[C@H](CCC(=O)[*:2])N[*:1]; εLys = N[C@@H](CCCCN[*:1])C(=O)[*:2]; AEEA = NCCOCCOCC(=O)O; Aib = CC(C)(N)C(=O)O A value given as a limit tells only on which side of the number the result lay.

Common to all, as to assay: cell-based or functional assay
For assay [1], the target named is T1, human glucose-dependent insulinotropic polypeptide receptor (human) (UniProt P48546).
T1 sequence (looked up): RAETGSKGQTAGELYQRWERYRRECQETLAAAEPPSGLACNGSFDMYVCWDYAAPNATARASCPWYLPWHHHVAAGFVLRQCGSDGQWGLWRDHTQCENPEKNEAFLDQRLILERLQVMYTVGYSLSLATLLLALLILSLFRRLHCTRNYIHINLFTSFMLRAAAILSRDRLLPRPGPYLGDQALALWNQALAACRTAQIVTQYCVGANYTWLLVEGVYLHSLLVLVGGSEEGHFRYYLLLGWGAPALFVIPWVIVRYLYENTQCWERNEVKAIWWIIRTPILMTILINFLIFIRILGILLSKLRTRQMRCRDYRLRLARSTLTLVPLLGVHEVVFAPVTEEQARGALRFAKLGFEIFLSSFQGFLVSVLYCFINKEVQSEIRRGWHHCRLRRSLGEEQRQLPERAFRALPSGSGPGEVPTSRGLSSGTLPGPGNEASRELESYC

Assay [2] concerns the target T2, mouse glucose-dependent insulinotropic polypeptide receptor (mouse) (UniProt Q0P543).
T2 sequence (looked up): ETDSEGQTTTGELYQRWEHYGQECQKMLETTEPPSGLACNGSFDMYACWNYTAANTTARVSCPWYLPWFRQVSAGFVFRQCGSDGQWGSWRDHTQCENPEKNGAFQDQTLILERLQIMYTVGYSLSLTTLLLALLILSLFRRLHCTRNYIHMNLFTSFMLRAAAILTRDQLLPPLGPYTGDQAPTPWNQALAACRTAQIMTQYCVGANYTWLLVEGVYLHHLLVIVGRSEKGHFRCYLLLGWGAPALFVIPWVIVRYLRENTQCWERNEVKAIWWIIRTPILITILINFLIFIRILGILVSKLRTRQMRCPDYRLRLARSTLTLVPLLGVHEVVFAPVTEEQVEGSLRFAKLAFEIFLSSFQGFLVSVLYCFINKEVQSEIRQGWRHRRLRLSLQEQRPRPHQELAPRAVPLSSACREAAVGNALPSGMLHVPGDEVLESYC

For assay [3], the target named is human glucagon-like peptide 1 receptor (human, UniProt P43220 24-463).
The target in assay [4] is T3, human glucose-dependent insulinotropic polypeptide receptor (human, UniProt P48546 22-466).
T3 sequence (looked up): T1 sequence (looked up)

In assay [5] the target is T4, mouse glucagon-like peptide 1 receptor (mouse, UniProt O35659 22-463).
T4 sequence (looked up): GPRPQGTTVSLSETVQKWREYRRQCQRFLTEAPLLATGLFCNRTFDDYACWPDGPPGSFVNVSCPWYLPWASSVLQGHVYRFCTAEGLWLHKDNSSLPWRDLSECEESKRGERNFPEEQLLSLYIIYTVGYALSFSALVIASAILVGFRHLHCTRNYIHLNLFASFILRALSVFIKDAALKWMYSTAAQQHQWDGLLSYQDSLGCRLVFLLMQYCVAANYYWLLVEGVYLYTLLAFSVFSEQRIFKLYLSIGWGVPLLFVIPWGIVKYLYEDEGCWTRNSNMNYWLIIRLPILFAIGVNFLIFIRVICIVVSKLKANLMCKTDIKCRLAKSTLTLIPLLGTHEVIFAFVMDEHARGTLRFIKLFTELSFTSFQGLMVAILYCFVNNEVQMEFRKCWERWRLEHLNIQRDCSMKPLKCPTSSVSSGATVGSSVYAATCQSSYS

The target of assay [6] is T5, mouse glucose-dependent insulinotropic polypeptide receptor (mouse, UniProt Q0P543 19-460).
T5 sequence (looked up): T2 sequence (looked up)

The next assay has as its target human glucagon receptor (human, UniProt P47871 26-477).

Take “human GIP (from UniProt P09681 52-93) (ligand)”: in assay [1], the hGIPR, CRE Luc 0% HSA EC50 came out at 0.0085 nM and the hGIPR, CRE Luc 1% HSA EC50 came to 0.0038 nM.

For “mouse GIP (from UniProt P48756 44-85) (ligand)”, the mGIPR, CRE Luc EC50 in assay [2] turned out to be 0.0354 nM.

B1: Compound #8 (peptide)
peptide: Ac-[dY]AEGTFTSDYSIYLDKQAA[Aib]K([εLys-εLys-γGlu-C18 diacid])FVNWLLAGGPSSGAPPPS-NH2
SMILES: CC[C@H](C)[C@H](NC(=O)[C@H](CO)NC(=O)[C@H](Cc1ccc(O)cc1)NC(=O)[C@H](CC(=O)O)NC(=O)[C@H](CO)NC(=O)[C@@H](NC(=O)[C@H](Cc1ccccc1)NC(=O)[C@@H](NC(=O)CNC(=O)[C@H](CCC(=O)O)NC(=O)[C@H](C)NC(=O)[C@@H](Cc1ccc(O)cc1)NC(C)=O)[C@@H](C)O)[C@@H](C)O)C(=O)N[C@@H](Cc1ccc(O)cc1)C(=O)N[C@@H](CC(C)C)C(=O)N[C@@H](CC(=O)O)C(=O)N[C@@H](CCCCN)C(=O)N[C@@H](CCC(N)=O)C(=O)N[C@@H](C)C(=O)N[C@@H](C)C(=O)NC(C)(C)C(=O)N[C@@H](CCCCNC(=O)[C@@H](N)CCCCNC(=O)[C@@H](N)CCCCNC(=O)CC[C@H](NC(=O)CCCCCCCCCCCCCCCCC(=O)O)C(=O)O)C(=O)N[C@@H](Cc1ccccc1)C(=O)N[C@H](C(=O)N[C@@H](CC(N)=O)C(=O)N[C@@H](Cc1c[nH]c2ccccc12)C(=O)N[C@@H](CC(C)C)C(=O)N[C@@H](CC(C)C)C(=O)N[C@@H](C)C(=O)NCC(=O)NCC(=O)N1CCC[C@H]1C(=O)N[C@@H](CO)C(=O)N[C@@H](CO)C(=O)NCC(=O)N[C@@H](C)C(=O)N1CCC[C@H]1C(=O)N1CCC[C@H]1C(=O)N1CCC[C@H]1C(=O)N[C@@H](CO)C(N)=O)C(C)C
In the case of B1, in assay [3], the “hGLP-1R, CRE Luc 0% HSA EC50” value was 0.0299 nM and the “hGLP-1R, CRE Luc 1% HSA EC50” value was 0.699 nM. Besides, in assay [4], the “hGIPR, CRE Luc 0% HSA EC50” value worked out at 0.0047 nM and the “hGIPR, CRE Luc 1% HSA EC50” value was determined as 0.0341 nM. Moreover, the “mGLP-1R, CRE Luc EC50” value in assay [5] amounted to 0.017 nM. Also, in assay [6], the “mGIPR, CRE Luc EC50” value was determined as 0.0233 nM.

B2: Compound #9 (peptide)
peptide: Y[Aib]EGTFTSDYSIYLDKQAA[Aib]K([εLys-εLys-γGlu-C18 diacid])FVNWLLAGGPSSGAPPPS-NH2
modifications: N-terminus assumed
SMILES: CC[C@H](C)[C@H](NC(=O)[C@H](CO)NC(=O)[C@H](Cc1ccc(O)cc1)NC(=O)[C@H](CC(=O)O)NC(=O)[C@H](CO)NC(=O)[C@@H](NC(=O)[C@H](Cc1ccccc1)NC(=O)[C@@H](NC(=O)CNC(=O)[C@H](CCC(=O)O)NC(=O)C(C)(C)NC(=O)[C@@H](N)Cc1ccc(O)cc1)[C@@H](C)O)[C@@H](C)O)C(=O)N[C@@H](Cc1ccc(O)cc1)C(=O)N[C@@H](CC(C)C)C(=O)N[C@@H](CC(=O)O)C(=O)N[C@@H](CCCCN)C(=O)N[C@@H](CCC(N)=O)C(=O)N[C@@H](C)C(=O)N[C@@H](C)C(=O)NC(C)(C)C(=O)N[C@@H](CCCCNC(=O)[C@@H](N)CCCCNC(=O)[C@@H](N)CCCCNC(=O)CC[C@H](NC(=O)CCCCCCCCCCCCCCCCC(=O)O)C(=O)O)C(=O)N[C@@H](Cc1ccccc1)C(=O)N[C@H](C(=O)N[C@@H](CC(N)=O)C(=O)N[C@@H](Cc1c[nH]c2ccccc12)C(=O)N[C@@H](CC(C)C)C(=O)N[C@@H](CC(C)C)C(=O)N[C@@H](C)C(=O)NCC(=O)NCC(=O)N1CCC[C@H]1C(=O)N[C@@H](CO)C(=O)N[C@@H](CO)C(=O)NCC(=O)N[C@@H](C)C(=O)N1CCC[C@H]1C(=O)N1CCC[C@H]1C(=O)N1CCC[C@H]1C(=O)N[C@@H](CO)C(N)=O)C(C)C
Turning to B2, in assay [3], the “hGLP-1R, CRE Luc 0% HSA EC50” value was determined as 0.0067 nM and the “hGLP-1R, CRE Luc 1% HSA EC50” value amounted to 0.11 nM. For the same molecule, in assay [4], the “hGIPR, CRE Luc 0% HSA EC50” value was determined as 0.0116 nM and the “hGIPR, CRE Luc 1% HSA EC50” value came to 0.135 nM. Further, the “mGLP-1R, CRE Luc EC50” value in assay [5] is 0.0025 nM. Moreover, the “mGIPR, CRE Luc EC50” value in assay [6] is 0.068 nM. For the same molecule, the “hGcgR, CRE Luc EC50” value in the assay with human glucagon receptor is greater than 10 nM.

B3: Compound #6 (peptide)
peptide: Y[Aib]EGTFTSDYSIYLDKQAA[Aib]K([γGlu-γGlu-γGlu-C18 diacid])FVNWLLAGGPSSGAPPPS-NH2
modifications: N-terminus assumed
SMILES: CC[C@H](C)[C@H](NC(=O)[C@H](CO)NC(=O)[C@H](Cc1ccc(O)cc1)NC(=O)[C@H](CC(=O)O)NC(=O)[C@H](CO)NC(=O)[C@@H](NC(=O)[C@H](Cc1ccccc1)NC(=O)[C@@H](NC(=O)CNC(=O)[C@H](CCC(=O)O)NC(=O)C(C)(C)NC(=O)[C@@H](N)Cc1ccc(O)cc1)[C@@H](C)O)[C@@H](C)O)C(=O)N[C@@H](Cc1ccc(O)cc1)C(=O)N[C@@H](CC(C)C)C(=O)N[C@@H](CC(=O)O)C(=O)N[C@@H](CCCCN)C(=O)N[C@@H](CCC(N)=O)C(=O)N[C@@H](C)C(=O)N[C@@H](C)C(=O)NC(C)(C)C(=O)N[C@@H](CCCCNC(=O)CC[C@H](NC(=O)CC[C@H](NC(=O)CC[C@H](NC(=O)CCCCCCCCCCCCCCCCC(=O)O)C(=O)O)C(=O)O)C(=O)O)C(=O)N[C@@H](Cc1ccccc1)C(=O)N[C@H](C(=O)N[C@@H](CC(N)=O)C(=O)N[C@@H](Cc1c[nH]c2ccccc12)C(=O)N[C@@H](CC(C)C)C(=O)N[C@@H](CC(C)C)C(=O)N[C@@H](C)C(=O)NCC(=O)NCC(=O)N1CCC[C@H]1C(=O)N[C@@H](CO)C(=O)N[C@@H](CO)C(=O)NCC(=O)N[C@@H](C)C(=O)N1CCC[C@H]1C(=O)N1CCC[C@H]1C(=O)N1CCC[C@H]1C(=O)N[C@@H](CO)C(N)=O)C(C)C
Regarding B3, in assay [3], the “hGLP-1R, CRE Luc 0% HSA EC50” value stood at 0.0059 nM and the “hGLP-1R, CRE Luc 1% HSA EC50” value came to 0.244 nM. In addition, in assay [4], the “hGIPR, CRE Luc 0% HSA EC50” value turned out to be 0.0081 nM and the “hGIPR, CRE Luc 1% HSA EC50” value was determined as 0.101 nM. Also, the “mGLP-1R, CRE Luc EC50” value in assay [5] amounted to 0.0023 nM. The “mGIPR, CRE Luc EC50” value in assay [6] is 1.27 nM.

B4: Compound #7 (peptide)
peptide: Ac-[dY]AEGTFTSDYSIYLDKQAA[Aib]K([AEEA-AEEA-γGlu-C18 diacid])FVNWLLAGGPSSGAPPPS-NH2
SMILES: CC[C@H](C)[C@H](NC(=O)[C@H](CO)NC(=O)[C@H](Cc1ccc(O)cc1)NC(=O)[C@H](CC(=O)O)NC(=O)[C@H](CO)NC(=O)[C@@H](NC(=O)[C@H](Cc1ccccc1)NC(=O)[C@@H](NC(=O)CNC(=O)[C@H](CCC(=O)O)NC(=O)[C@H](C)NC(=O)[C@@H](Cc1ccc(O)cc1)NC(C)=O)[C@@H](C)O)[C@@H](C)O)C(=O)N[C@@H](Cc1ccc(O)cc1)C(=O)N[C@@H](CC(C)C)C(=O)N[C@@H](CC(=O)O)C(=O)N[C@@H](CCCCN)C(=O)N[C@@H](CCC(N)=O)C(=O)N[C@@H](C)C(=O)N[C@@H](C)C(=O)NC(C)(C)C(=O)N[C@@H](CCCCNC(=O)COCCOCCNC(=O)COCCOCCNC(=O)CC[C@H](NC(=O)CCCCCCCCCCCCCCCCC(=O)O)C(=O)O)C(=O)N[C@@H](Cc1ccccc1)C(=O)N[C@H](C(=O)N[C@@H](CC(N)=O)C(=O)N[C@@H](Cc1c[nH]c2ccccc12)C(=O)N[C@@H](CC(C)C)C(=O)N[C@@H](CC(C)C)C(=O)N[C@@H](C)C(=O)NCC(=O)NCC(=O)N1CCC[C@H]1C(=O)N[C@@H](CO)C(=O)N[C@@H](CO)C(=O)NCC(=O)N[C@@H](C)C(=O)N1CCC[C@H]1C(=O)N1CCC[C@H]1C(=O)N1CCC[C@H]1C(=O)N[C@@H](CO)C(N)=O)C(C)C
On to B4, for which, in assay [3], the “hGLP-1R, CRE Luc 0% HSA EC50” value was determined as 0.0557 nM and the “hGLP-1R, CRE Luc 1% HSA EC50” value amounted to 1.73 nM. Also, in assay [4], the “hGIPR, CRE Luc 0% HSA EC50” value worked out at 0.0033 nM and the “hGIPR, CRE Luc 1% HSA EC50” value amounted to 0.0493 nM. Besides, the “mGLP-1R, CRE Luc EC50” value in assay [5] turned out to be 0.0174 nM. The “mGIPR, CRE Luc EC50” value in assay [6] stood at 0.0425 nM.
